Consider 52 sequences from the supplement of paper PMC10567573.

± gives the standard deviation.

This data set in a line: protein stability index of a GFP-peptide fusion (GPS, HEK-293T) (PSI 1-6); higher = more stable.
[1] abbreviates: treatment: DMSO, c terminus: a fixed tail appended.
[2] abbreviates: treatment: MLN4924 1 uM, 8 h, c terminus: a fixed tail appended.
[3] abbreviates: treatment: DMSO, c terminus: native.
The mark [4] stands for this setting: treatment: MLN4924 1 uM, 8 h, c terminus: native.
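Note: 24-mer peptide tiles fused after GFP, lentivirally expressed, FACS-sorted into six equal bins by GFP/DsRed ratio, decoded by Illumina sequencing, PSI is the read-weighted mean bin number.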

On to LGPGALHFDLRDDDDAEEEGPKRE [TCF25], for which the protein stability index runs as follows: under setting [1], 5.17 ± 0.29; under setting [2], 5.54 ± 0.13.

Consider LGVGLLTFASLETVGIYFGLVYRI [TMEM40], for which the protein stability index worked out at 3.17 ± 0.25 under setting [1] and 3.29 ± 0.22 under setting [2].

With LHQTVERIHVGKKYGDIPRGIFVV [LSM1], the protein stability index reads like this: under setting [1], 2.76 ± 0.59; under setting [2], 2.59 ± 0.63.

Take LILFAWGTLLFYIGGHLVRDNDHP [FUT8]: the protein stability index is, setting by setting: under setting [1], 2.95 ± 0.19; under setting [2], 3.36 ± 0.47.

For the sequence LIQDSPDSSTSPKGKQPTSAENSV [NANOGP8], the protein stability index reads like this: under setting [1], 5.23 ± 0.11; under setting [2], 5.17 ± 0.17.

As for LIVGAPIWFRVPYSIISLLLKDKV [PTPN9], the protein stability index was found to be 2.59 ± 0.37 under setting [1] and 2.75 ± 0.85 under setting [2].

As for LKGAFPARLKKVLIVGAPIWFRVP [PTPN9], the protein stability index was 2.96 ± 0.7 under setting [1] and 2.84 ± 0.5 under setting [2].

With LKGTLVSTLKEVKPTVFIGVPQIW [ACSBG2], the protein stability index by setting is: under setting [1], 2.65 ± 0.2; under setting [2], 3.5 ± 0.61.

Turning to LKHWRRAMELRHQGGEYLPKPEPP [FEM1A], the protein stability index by setting is: under setting [1], 3.08 ± 0.53; under setting [2], 3.16 ± 0.41.

On to LLARPGTGEHREFKLDKKYQRPQD [FBF1], for which the protein stability index runs as follows: under setting [1], 3.95 ± 0.41; under setting [2], 4.16 ± 0.3.

LLDGLARRVGILGEELADVGGVLR [SCARA5]: the protein stability index was found to be 2.64 ± 0.2 under setting [1] and 2.72 ± 0.4 under setting [2].

For LLEGTPSSASEGDEDLRRQMQDDE [PALM], the protein stability index reads like this: under setting [1], 5.45 ± 0.25; under setting [2], 5.49 ± 0.28.

With LLGFNLTFVFLASLLVLIEPVAAG [CLCN6], the protein stability index reads like this: under setting [1], 3.45 ± 0.23; under setting [2], 3.14 ± 0.36.

Turning to LLGLKAFLGLFFIVRFLESNWFVW [FADS1], the protein stability index was 2.9 ± 0.47 under setting [1] and 2.31 ± 0.43 under setting [2].

As to LLLLDLLALYTPVGAAGSARQELL [ANKRD9], the protein stability index under setting [1] was 2.89 ± 0.38 and the protein stability index under setting [2] was determined as 2.88 ± 0.27.

Take LLSLNSLLPESGIVADIELENVLD [TFE3]: the protein stability index runs as follows: under setting [1], 3.3 ± 0.49; under setting [2], 3.3 ± 0.19.

Turning to LLSSVHVLDLEARGYIKPHVDSIK [ALKBH7], the protein stability index is, setting by setting: under setting [1], 2.97 ± 0.22; under setting [2], 3.19 ± 0.33.

As to LLVLCEDHRGRMVKHQCCPGCGYF [EHMT1], the protein stability index reads like this: under setting [1], 2.36 ± 0.087; under setting [2], 2.27 ± 0.36.

As to LMRHMATHSPQKSHQCAHCEKTFN [PLAGL1], the protein stability index reads like this: under setting [1], 3.24 ± 0.3; under setting [2], 3.2 ± 0.28.

For the sequence LNAEAGHLDPGFLASDKTSAGNAP [C18orf25], the protein stability index stood at 5.07 ± 0.14 under setting [1] and 4.98 ± 0.14 under setting [2].

On to LNGASVLPHKSIGESVPEPRIIM [GMPPB], for which the protein stability index was 3.65 ± 0.17 under setting [3] and 3.71 ± 0.14 under setting [4].

As for LNGENSDIKICALGEEWSLHKIYL [GMCL1], the protein stability index worked out at 2.14 ± 0.32 under setting [1] and 1.94 ± 0.41 under setting [2].

Take LNRALSNLSSRWKNWWVRGILTLA [CDS2]: the protein stability index is, setting by setting: under setting [1], 3.17 ± 0.31; under setting [2], 3.1 ± 0.49.

Regarding LPCSSYIDSYDPSTGEVYCRVPNS [ALDH8A1], the protein stability index is 2.65 ± 0.22 under setting [1] and 2.88 ± 0.24 under setting [2].

On to LPILTWPVLQSRTGLVYDQNMMNH [HDAC6], for which the protein stability index by setting is: under setting [1], 2.25 ± 0.23; under setting [2], 2.3 ± 0.33.

LPIVAIENILSFMSYDEISQLRLV [FBXO28]: the protein stability index runs as follows: under setting [1], 2.94 ± 0.5; under setting [2], 2.81 ± 0.43.

Turning to LPPEKGREVAKELGLPYYETSVFD [RHOBTB1], the protein stability index under setting [1] came to 3.65 ± 0.18 and the protein stability index under setting [2] turned out to be 3.8 ± 0.24.

LPQTPHLEEDLKEVLRSEAGIELI [MYBL2]: the protein stability index runs as follows: under setting [1], 4.2 ± 0.44; under setting [2], 4.37 ± 0.17.

In the case of LPRRDFQRQVWLLFEYPESSGPAR [KCNA3], the protein stability index runs as follows: under setting [1], 2.32 ± 0.26; under setting [2], 2.71 ± 0.58.

Take LPVGTQLLTVTATDRDEGANGEVT [PCDHGA10]: the protein stability index is 5.32 ± 0.37 under setting [1] and 5.4 ± 0.23 under setting [2].

As for LQAPVPPDSVPSLQNMGLLLDKLA [PBXIP1], the protein stability index worked out at 3.11 ± 0.44 under setting [1] and 2.86 ± 0.46 under setting [2].

In the case of LQDVRVNQSRCEMKTFVSPEAISP [TRIM15], the protein stability index was 4.01 ± 0.17 under setting [1] and 4.09 ± 0.29 under setting [2].

For the sequence LQEKSQCALEEYVRSQYPNQPTRF [NR2F2], the protein stability index under setting [1] worked out at 3.16 ± 0.25 and the protein stability index under setting [2] was 3.24 ± 0.24.

On to LQEPGVFSPTPPQQFQPAGTDQVC [FCHSD1], for which the protein stability index is, setting by setting: under setting [1], 4.25 ± 0.16; under setting [2], 4.45 ± 0.27.

In the case of LQEQHLSSPQGVQLDIASQSLDQE [BCL2L13], the protein stability index runs as follows: under setting [1], 5.38 ± 0.28; under setting [2], 5.56 ± 0.21.

Take LQEVLSSDENGGTYVSPPGNEEEE [DDIT3]: the protein stability index under setting [1] came to 5.63 ± 0.27 and the protein stability index under setting [2] is 5.42 ± 0.3.

For LQGSLFGLAGLLPASYTAPIMSGQ [SLC29A1], the protein stability index runs as follows: under setting [1], 2.44 ± 0.28; under setting [2], 2.27 ± 0.3.

With LQKLLSGRSREELDELTGEVAGGG [FEM1A], the protein stability index runs as follows: under setting [1], 4.64 ± 0.19; under setting [2], 4.71 ± 0.2.

With LQLRYSLRILIGDPPHHDHHDEFC [BEX5], the protein stability index runs as follows: under setting [1], 2.74 ± 0.54; under setting [2], 2.48 ± 0.45.

For LQMEMKEDDVSFLMKHKSRKRRLF [TRIM35], the protein stability index reads like this: under setting [1], 3.35 ± 0.35; under setting [2], 3.54 ± 0.16.

LQPEQQLNIYKTLKTHLIEKGILQ [CDS1]: the protein stability index reads like this: under setting [1], 2.42 ± 0.14; under setting [2], 2.58 ± 0.4.

As for LQTLLYFLSDVTAAVKENQMTPTN [DLC1], the protein stability index reads like this: under setting [1], 2.04 ± 0.52; under setting [2], 2.12 ± 0.83.

LRAIDFGTDEEEEEFIEEEDQEEE [TRIM63] yielded a protein stability index under setting [1] of 5.63 ± 0.15 and a protein stability index under setting [2] of 5.65 ± 0.13.

Consider LRAQVPFEQILSLPELKANPFKER [CIB1], for which the protein stability index by setting is: under setting [1], 3.17 ± 0.29; under setting [2], 3.1 ± 0.42.

In the case of LRDVNHEKAMAEWVKQQAEREAEK [SDE2], the protein stability index came out at 5.19 ± 0.12 under setting [1] and 5.42 ± 0.23 under setting [2].

For LRPRPASSISLPIGHLGCISLLS [DMRTC1], the protein stability index was found to be 2.47 ± 0.41 under setting [3] and 2.43 ± 0.33 under setting [4].

For LSDTELTTLLRRYNIPHGPVVGST [EMD], the protein stability index reads like this: under setting [1], 2.74 ± 0.38; under setting [2], 2.69 ± 0.26.

As to LSLIARFSPIAIDGMSGLAGVGLS [ELAVL3], the protein stability index worked out at 2.7 ± 0.73 under setting [1] and 2.48 ± 0.42 under setting [2].

LSMDEKVELYRIKFKESFAEMNRG [COX4I1]: the protein stability index under setting [1] is 2.9 ± 0.2 and the protein stability index under setting [2] is 2.97 ± 0.21.

In the case of LSMERYALVFGVNTFIALALQTLL [SLC19A2], the protein stability index was determined as 3.04 ± 0.22 under setting [1] and 2.93 ± 0.53 under setting [2].

LSRQEFLGMVGLFGTIISGIQLLI [SLC35F2]: the protein stability index is 2.28 ± 0.25 under setting [1] and 2.09 ± 0.33 under setting [2].

Turning to LSTPKPLVDFCNKPILLHQVEALA [GMPPB], the protein stability index under setting [1] was 2.54 ± 0.3 and the protein stability index under setting [2] stood at 2.52 ± 0.41.
